In patent publication US20250381223A1 (UTC THERAPEUTICS SHANGHAI, published 2025):
Residue numbers refer to the chain shown, from its start.

T1: CD123-Fc recombinant protein (human, UniProt P26951 19-305)
T1 construct: construct not described; not shown: Fc part
T1 sequence (looked up): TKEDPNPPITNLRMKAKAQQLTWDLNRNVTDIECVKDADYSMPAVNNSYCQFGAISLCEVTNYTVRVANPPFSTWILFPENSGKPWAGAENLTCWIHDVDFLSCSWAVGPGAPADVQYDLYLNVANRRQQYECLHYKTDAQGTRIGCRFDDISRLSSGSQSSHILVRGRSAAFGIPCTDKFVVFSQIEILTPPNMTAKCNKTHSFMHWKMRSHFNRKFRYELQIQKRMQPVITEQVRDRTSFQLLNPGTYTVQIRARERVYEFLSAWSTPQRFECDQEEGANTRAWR

B1: C12 (scFv)
scFv: QSVLTQPPSVSAAPGQKVTISCSGSSSNIGNNYVSWYQQLPGTAPKLLIFDDNKRPSGIPDRFSGSLSGTSASLAISGLQSEDDADYYCSAWDDSLSGYVFGTGTKLTVLGGGGSGGGGSGGGGSQVQLVQSGGGLVKPGGSLRLSCAASGFTFSSYNINWVRQAPGKGPEWVSSISSSSSYRYYADSVKGRFTISRDNAKNSLYLQMNSLRAEDTAVYYCVRDKTGGYGTAFDYWGQGTLVTVSS
notes: also called anti-CD123 scFv-C12
B2: C22 (scFv)
scFv: SYELTQPPSVSVAPGKTARITCGANNIETKSVHWYRQRPGQAPILVIYYDSDRPSGIPERFSGSTSGDTATLTISRVEAEDEADYYCQVWDSTSDHVVFGEGTKLTVLGGGGSGGGGSGGGGSEVQLVESGAEVKKPGESLKISCKGSGYSFTSYWIGWVRQMPGKGLEWMGIINPSGGSTSYAQKFQGRVTMTRDTSTSTVYMELSSLRSEDTAVYYCARVVTPYYPLTNWGQGTLVTVSS
notes: also called anti-CD123 scFv-C22
B3: anti-mesothelin scFv-M15 (scFv)
scFv: DIQLTQSPSSLSASIGDRVTITCRASQGVNSALAWYQQKPGKPPNLLIYDASSLESGVPSRFSGSGSGRDFTLTISSLQPEDFATYYCQQFSSYPLTFGGGTKVDIKGGGGSGGGGSGGGGSQVQLVQSGAEVKKPGASVKVSCKASGYTFTSYYMHWVRQAPGQGLEWMGIINPSGGSTSYAQKFQGRVTMTRDTSTSTVYMELSSLRSEDTAVYYCARAQRGGSVYFDYWGQGTLVTVSS
notes: On mRNA-electroporated T cells as CAR
B4: M18 (scFv)
chain 1: QVQLVQSGGGLVQPGGSLRLSCAASGFTFSSYWMHWVRQAPGKGLVWVSRINSDGSSTSYADSVKGRFTISRDNAKNTLYLQMNSLRAEDTAVYYCVRTGWVGSYYYYMDVWGKGTTVTVSS
chain 2: EIVLTQSPGTLSLSPGERATLSCRASQSVSSNYLAWYQQKPGQPPRLLIYDVSTRATGIPARFSGGGSGTDFTLTISSLEPEDFAVYYCQQRSNWPPWTFGQGTKVEIK
B5: 4.6 (bispecific antibody)
single chain, scFv-G4S-scFv: QVQLVQSGAEVKKPGSSVKVSCKASGGTFSSYAISWVRQAPGQGLEWMGMINPSGGTTSYAQKFQGRVTMTRDTSTSTVYMELSSLRPEDTAVYYCARGFRMDQWGQGTLVTVSSGGGGSGGGGSGGGGSQSALTQPPSASGSPGQSVTISCTGTSSDVGAYNFVSWYQQHPGNAPKLIIYDVRKRPSGIPDRFSASKSGNTASLTVSGLQADDEADYYCSSYAGNNNLVFGGGTKLTVLGGGGSQVKLQESGPGLVKPSETLSITCTVSGFSLSDYGVHWVRQSPGKGLEWLGVIWAGGGTNYNSALMSRKTISKDNSKSQVFLKMSSLTAADTAVYYCARDKGYSYYYSMDYWGQGTTVTVSSGGGGSGGGGSGGGGSDIQLTQSPSSLSVSVGDRVTISCRASESVEYYVTSLMQWYQQKPGQAPKLLIFAASNVESGVPSRFSGSGSGTNFTLTISSVQEEDFAMYFCQQSRKVPYTFGGGTKLEIK
notes: Expressed from mRNA in T cells; A signal peptide is not described; also called parent diabody 4.6
B6: 5.36 (bispecific antibody)
single chain, scFv-G4S-scFv: B5 single chain, scFv-G4S-scFv with E10Q, S188I
B7: 5.12 (bispecific antibody)
single chain, scFv-G4S-scFv: B5 single chain, scFv-G4S-scFv with I34V, S188R
B8: 5.17 (bispecific antibody)
single chain, scFv-G4S-scFv: B5 single chain, scFv-G4S-scFv with N228E, L229M
notes: how the two are joined there is not described; also called diabody part of M12-5.17 and 5.17-M12
B9: 5.25 (bispecific antibody)
single chain, scFv-G4S-scFv: B5 single chain, scFv-G4S-scFv with N228R
B10: 5.28 (bispecific antibody)
single chain, scFv-G4S-scFv: B5 single chain, scFv-G4S-scFv with V183T
B11: 4052.12 (antibody, V domains shown)
VH: QVQLVQSGAEVKKPGSSVKVSCKASGGTFSSYAVSWVRQAPGQGLEWMGMINPSGGTTSYAQKFQGRVTMTRDTSTSTVYMELSSLRPEDTAVYYCARGFRMDQWGQGTLVTVSS
VL: QSALTQPPSASGSPGQSVTISCTGTSSDVGAYNFVSWYQQHPGNAPKLIIYDVRKRPRGIPDRFSASKSGNTASLTVSGLQADDEADYYCSSYAGNNNLVFGGGTKLTVL
B12: 4052.28 (antibody, V domains shown)
VH: B11 VH with V34I
VL: B11 VL with V53T, R58S
B13: 4052.25 (antibody, V domains shown)
VH: B11 VH with V34I
VL: B11 VL with R58S, N98R
B14: 4052.36 (antibody, V domains shown)
VH: B11 VH with E10Q, V34I
VL: B11 VL with R58I

The binders below were run against T1, CD123-Fc recombinant protein (assay: flow cytometry of T cells electroporated with CAR mRNA, stained with CD123-Fc + PE-anti-hIgG-Fc).
Method: (§1) The CD123 CAR mRNAs obtained in Example 35 above were each introduced into T cells by electroporation according to the following procedures: T cells were collected, washed with the Opti-MEM medium, and resuspended at 1×10e⁷/mL with the Opti-MEM medium; 10 μg of RNA and 100 μL of T cells were aliquoted, mixed well, and electroporated under the following parameters (BTX machine): 500 V, 0.7 ms; the cells were then transferred to a pre-warmed medium and cultured at 37° C. The binding of CD123 CART cells to the CD123-Fc recombinant protein was detected by FACS staining. […] Empty vector (Mock) was a control T cell without CAR molecule. A549 tumor cells were electroporated with different amounts of CD123 mRNA. The electroporation procedure was the same as described above, and only the parameters were changed, with the parameters 300 V, 0.5 ms used. CD123 expression in A549 tumor cells was detected by FACS staining of isotype or anti-CD123 antibodies and A549 cells electroporated with different amounts of CD123 mRNA. […] The cytotoxicity of CD123 CART cells against tumor cells was detected in an in vitro cytotoxicity assay. Tumor cells expressing EGFP or EGFP-A549 cells electroporated with different amounts of tumor antigen were seeded at 3000 cells/100 μL/well into a flat-bottom 96-well plate; CART cells were diluted to a proper concentration and seeded to the 100 μL/well tumor cells according to different E/T ratios (e.g., 10:1, 3:1, or 1:1), and the co-culture plate was placed into the IncuCyte S3 machine and scanning parameters were set. After scanning for 3 days, the total green object integrated intensity (GCU×μm²/well) was analyzed to calculate the killing efficiency.

Row | Binder | binding result
1 | B1 | no binding
2 | B2 | no binding

The binders below were run against T2, mesothelin-Fc recombinant protein (human, UniProt Q13421 296-580, limits assumed) (assay: flow cytometry, T cells with CAR mRNA, mesothelin-Fc + PE-anti-IgG-Fc; Control 0.63).
T2 construct: construct not described; also called Meso-Fc; not shown: Fc part
Method: Mesothelin CAR mRNA obtained in Example 26 above was introduced into A549 tumor cells and T cells by electroporation, and the procedures are as follows: A549 tumor cells and T cells were collected and washed 3 times with the Opti-MEM medium. The cell pellet was resuspended in the Opti-MEM medium and the cell concentration was adjusted to 1×10e7 cells/mL. 10 μg of RNA was aliquoted into 1.5-mL EP tubes, 100 μL of T cells or A549 cells were added, followed by mixing well. 100 μL of cells mixed with RNA were added to the BTX electroporation cuvette and slight tapping was performed to avoid air bubbles. Electroporation was performed using a BTX instrument under the following parameters: for T cells: 500 V voltage, 0.7 ms; for A549 tumor cells: 300 V voltage, 0.5 ms. The cells were then transferred to a pre-warmed medium and cultured at 37° C. The binding of mesothelin CART cells to the mesothelin-Fc recombinant protein was determined by FACS staining. […] T cells without CAR molecules served as the control (“Mock”).

T2 sequence (Q13421 other isoform, or with tags, fused parts or gaps limits assumed): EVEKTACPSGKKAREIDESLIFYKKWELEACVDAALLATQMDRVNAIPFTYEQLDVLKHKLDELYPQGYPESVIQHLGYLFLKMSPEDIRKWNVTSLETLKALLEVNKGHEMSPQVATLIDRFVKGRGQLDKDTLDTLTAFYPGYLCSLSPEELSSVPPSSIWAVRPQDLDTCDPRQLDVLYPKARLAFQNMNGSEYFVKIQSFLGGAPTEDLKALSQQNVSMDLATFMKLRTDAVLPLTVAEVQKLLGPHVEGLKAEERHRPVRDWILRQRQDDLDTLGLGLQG

Row | Binder | percent of cells in the gate [%]
3 | B3 | 48.8
4 | B4 | 9.53

Each binder was assayed against T3, Meso-biotin (assay: flow cytometry, T cells with diabody mRNA only, Meso-biotin + PE-Streptavidin; E1 0.29).
T3 construct: Meso-Fc and PE-anti-Fc for this staining

Row | Binder | percent of cells in the gate [%]
5 | B5 | 0.72
6 | B6 | 1.14
7 | B7 | 1.11
8 | B8 | 1.12
9 | B9 | 2.36
10 | B10 | 0.94

The binders below were run against T4, CD40-Fc ( for this staining reagent …, UniProt P25942) (assay: flow cytometry, T cells with diabody mRNA and M12 CAR mRNA, CD40-Fc + PE-anti-Fc; E1 0.48, E2 (M12 only) 0.77).
T4 construct: soluble Fc fusion; Staining reagent, detected with PE-anti-Fc

Row | Binder | percent of cells in the gate [%]
11 | B5 | 83.9
12 | B6 | 94.2
13 | B7 | 87.9
14 | B8 | 88.1
15 | B9 | 92.9
16 | B10 | 87.4

The binders below were run against T1, CD123-Fc recombinant protein (assay: flow cytometry of T cells electroporated with CAR mRNA, stained with CD123-Fc + PE-anti-hIgG-Fc; Mock 1.68).
Method: as §1

Row | Binder | percent of cells in the CD123-Fc positive gate [%]
17 | B1 | 1.37

What follows are binders tested against T1, CD123-Fc recombinant protein (assay: flow cytometry of T cells electroporated with CAR mRNA, stained with CD123-Fc + PE-anti-hIgG-Fc; Mock 0.36).
Method: as §1

Row | Binder | percent of cells in the CD123-Fc positive gate [%]
18 | B2 | 0.53

These binders were tested against T4, CD40-Fc (assay: flow cytometry, T cells with 10 µg diabody mRNA only, CD40-Fc + PE-anti-Fc; E1 (no mRNA) 0.48).

Row | Binder | percent of cells in the gate [%]
19 | B5 | 81.6
20 | B6 | 88
21 | B7 | 93.6
22 | B8 | 82.1
23 | B9 | 92.7
24 | B10 | 85.8

What follows are binders tested against T5, recombinant human CD40-His antigen protein (human, UniProt P25942 21-193) (assay: ELISA; plate coated with CD40-His 2 µg/mL; HRP-anti-hFc).
T5 construct: Bought protein; also called recombinant CD40-His protein; CD40 antigen; not shown: His tag
Method: The binding activities of the affinity-matured antibodies for antigen CD40 were detected by ELISA. The experimental procedures were as follows: [0637] 1. 50 μL of recombinant CD40-His protein at a concentration of 2 μg/mL was added to each well of an ELISA plate, and the plate was incubated at 4° C. overnight. […] 2. The next day, the ELISA plate was washed 3 times with PBST (containing 0.05% Tween-20). [0639] 3. 250 μL of 5% skim milk powder (dissolved in PBS) was added to each well of the ELISA plate, and the plate was incubated at room temperature for 2 h. [0640] 4. The plate was washed 3 times with PBST, antibodies with different dilution ratios were added to the ELISA plate at 50 μL/well, and the plate was incubated at room temperature for 60 min. [0641] 5. The plate was washed 3 times with PBST, 50 μL of HRP-anti-hFc antibody was added to each well, and the plate was incubated at room temperature for 60 min. [0642] 6. The plate was washed 3 times with PBST, 50 μL of TMB was added to each well, and after color development at room temperature, 50 μL of 2 M HCl was added to each well to stop the reaction. The plate was read at 450 nm.

Row | Binder | EC50 [µg/mL]
25 | B11 | 0.124
26 | B12 | 0.116
27 | B13 | 0.111
28 | B14 | 0.134
